Holding throughout (assay): cell_activity
In data set [1] the test system is YJR030c-specific ZFN (synthetic). To be noted: yeast, pCUT016 alone; 63% with dual nuclease plasmid pCUT032.
The test system of data set [2] is ZFN.gfp (CompoZr zinc finger nuclease heterodimer ZFN.gfp.1/ZFN.gfp.2) (synthetic). To be noted: yeast, three integrated target copies; 0 of 96 with empty vector; monomer to half-site assignment not stated; scale: of 96 colonies with all three loci replaced.
In data set [3] the test system is FS-specific TALEN (synthetic). To be noted: yeast; 3 clones single, 1 double integration; half-sites not stated; scale: clone of 48 with all three ADS cassettes integrated.
The test system of data set [4] is SFC1-specific ZFN (synthetic). To be noted: yeast, pCUT015 alone; 76% with dual nuclease plasmid pCUT032.

The values that follow come from patent publication US20120277120.

For YJR030c ORF target, the activity (% ADE2-positive) in data set [1] was 5.

Take “ACAACTACAACAGCCACAACGTCTATATCATGGCCGACAAGCA (double strand) [ZFN.gfp target in emgfp-delta]”: the activity in data set [2] was 23.

“TAGTGGAGGAATTAAAAGAGGAAGTTAAGAAGGAATTGATAACTATCAA (double strand) [FS TALEN target site]” yielded an activity in data set [3] of 1.

In turn, SFC1 ORF target showed an activity (% GFP-positive) in data set [4] of 50.
